One molecule from article PMC10925046, “TERRA-LSD1 phase separation promotes R-loop formation for telomere maintenance in ALT cancer cells” can be followed below.

The target of one series is LSD1 deltaIDR 3KE;CoREST (human;human?, UniProt O60341;Q9UKL0 171-852;289-485, K355E;K357E;K359E|). The series can be described thus: pull-down; EMSA: 4 C, 5 min, 0.75% agarose in 1x THE pH 7.4 (34 mM Tris, 66 mM HEPES, 0.1 mM EDTA) + 0.1 M K acetate, RNA folded in 10 mM Tris pH 7.4, 100 mM KCl, 1 mM TCE.
In the next series the target is LSD1 deltaIDR;CoREST (human;human?, UniProt O60341;Q9UKL0 171-852;289-485, |). The series is described as above.

For UUAGGGUUAGGGUUAGGGUUAGGGUUAGGGUUAGGGUUAGGGUUAGGG (structured_RNA) [biotin-TERRA (UUAGGG)8], the binding result in the series with LSD1 deltaIDR 3KE;CoREST was “no binding”; with LSD1 deltaIDR;CoREST, “binds”.
